Results from patent US20220211858A1, “TUBULAR SUPRAMOLECULAR POLYMERS” (priority 2019, published 2022).
Entries after “also recorded” stand apart in the source; their conditions may differ.

Key:
[1] = Drug release from TT 1 nanotubes with or without GSH; type: physicochemical; conditions: 200 μM
Description: The release of free CPT from TT 1 nanotubes was evaluated in the presence or absence of GSH. Stock solutions of 400 μM of TT 1 in deionized water were prepared and diluted to 200 μM with 20 mM PBS buffer with or without GSH (20 mM). Three replicate experiments were prepared together for both conditions. The solutions were incubated at 37° C. and samples were collected at 0 min, 10 min, 20 min, 30 min, 1 h, 2 h, 4 h, 6 h, 8 h, 12 h and 24 h. For each collected sample, the reductive release was halted by acidification of the solution through the addition of 0.2 μL of 2M HCl. Samples were then frozen with liquid nitrogen and stored at −30° C. until analysis. The amount of released CPT was monitored by RP-HPLC using the following conditions: Varian Pursuit XRs C18 (5 μm, 150×4.6 mm); 362 nm detection wavelength; 1 ml/min flow rate; the gradient began at 90% of mobile phase A (0.1% aqueous TFA) and 10% of mobile phase B (acetonitrile containing 0.1% TFA) increasing to 90% mobile phase B by 15 min and held for another 1 min before decreasing to the initial solvent composition at 20 minutes. Selected time points were characterized and data were plotted as a percentage of the total expected CPT concentration.

[2] = Physical stability of TT 1 nanotubes upon dilution in cell medium (CD); type: physicochemical
Description: The stability of non-ionic TT 1 nanotubes upon dilution in cell medium was evaluated by recording the CD spectrum for a series of prepared dilutions. […] A stock solution of TT 1 nanotube was prepared at a concentration of 1 mM in water and aged overnight. The aged solution was then diluted to 200 μM with cell medium. Further dilutions of the 200 μM TT 1 nanotube in cell medium were prepared at 100 μM, 50 μM, 25 μM, 10 μM, and 5 μM concentration. All diluted solutions were incubated for an additional two days before CD measurements were made. All the CD spectra were recorded from 300 to 440 nm using a 1 mm (for 200 μM, 100 μM, and 50 μM) or 10 mm (for 25 μM, 10 μM, and 5 μM) path length quartz cell. The spectra were collected and normalized from ellipticity (mdeg) to molar ellipticity (deg·cm^2·dmol^−1).

[3] = tested on: U87 MG human brain cancer cells; conditions: 48 h incubation, SRB, CPT concentration
Description: The human brain cancer cell line U87 MG was a generous gift from Dr. Wirtz (ChemBE, JHU). DMEM (Invitrogen) containing 10% fetal bovine serum (FBS, Invitrogen) and 1% antibiotics (Invitrogen) was used for the culture of the U87 MG cells. Cancer cells were incubated at 37° C. in a humidified incubator (Oasis, Caron, Marietta, Ohio, USA) with an atmosphere of 5% CO2. […] U87 MG cells were seeded onto 96-well plates (5000 cells/well) and allowed to attach overnight. […] The stock solutions were then diluted with fresh medium to achieve final CPT concentrations of 0.1, 1, 10, 100, 500, 1000, 5000 and 10000 nM. After dilution, the nanotube-containing media were used to incubate cells immediately. Medium containing the same concentration of free CPT ranging from 0.1 to 10000 nM was also used to incubate the cells, with non-treated cells (solvent only) as the control group. In addition, irinotecan at the concentration of 0.1, 1, 5, 10, 50, 100 and 500 μM was employed as a second control. After 48 h incubation, the cell viability was evaluated using the SRB method according to the manufacturer's protocols (TOX-6, Sigma, St. Louis, Mo.).

[4] = Maximum tolerated dose (MTD) dose escalation study; parameters: species or system athymic nude mice; conditions: female, athymic nude, mouse, in vivo, intravenous, three doses, four days a dose; ½ of single-injection MTD; read-out: MTD of multiple injections
[5] = TEM / cryo-TEM imaging of self-assembled nanostructures (dimensions); type: physicochemical
Description: About 200 μM stock solutions of corresponding TTs in water were prepared by dissolution of the lyophilized powders. After aging overnight, TEM samples were prepared by depositing 7 μL of the appropriate solution onto a carbon-coated copper grid (Electron Microscopy Services, Hatfield, Pa., USA), wicking away the excess solution with a small piece of filter paper. Next, 7 μL of a 2 wt % uranyl acetate aqueous solution was deposited on the surface for 30 seconds, wicking away the excess solution with filter paper. The grids were then air-dried overnight at room temperature prior to imaging. Bright-field TEM imaging was performed using an FEI Tecnai 12 TWIN Transmission Electron Microscope operated at an acceleration voltage of 100 kV. All TEM images were acquired by a SIS Megaview III wide-angle CCD camera or 16 bit 2K×2K FEI Eagle bottom mount camera.
Cryo-TEM imaging was performed using higher sample concentrations of 800 μM (compared with 200 μM for conventional TEM imaging). Extended imaging times can result in damage to the vitreous ice film caused by the electron beam and so higher concentrations can allow a more rapid visualization that reduces this likelihood. About 6 μL of the appropriate solution was dropped onto a lacey carbon-film-supported TEM copper grid (Electron Microscopy Services, Hatfield, Pa., USA). All the TEM grids used for cryo-TEM imaging were pretreated with plasma air to render the lacey carbon film hydrophilic. A thin film of the sample solution was produced using a Vitrobot with a controlled humidity chamber (FEI). After loading of the sample solution, the lacey carbon grid was blotted using preset parameters and plunged instantly into a liquid ethane reservoir precooled by liquid nitrogen. The vitrified samples were then transferred to a cryo-holder and cryo-transfer stage that was cooled by liquid nitrogen. To prevent sublimation of vitreous water, the cryo-holder temperature was maintained below −170° C. during the imaging process. All images were recorded by a Tecnai 12 microscope with a cryo-holder, and the images were acquired by a 16 bit 2K×2K FEI Eagle bottom mount camera.
Self-Assembly of SAPDs from TT1. To study the self-assembly behavior of the SAPDs, we directly dissolved the lyophilized powders in deionized water at a concentration of 2 mM and neutral pH.

CC[C@]1(OC(=O)OCCSSC[C@@H](NC(C)=O)C(=O)N[C@@H](CCCCNC(=O)[C@@H](CSSCCOC(=O)O[C@]2(CC)C(=O)OCc3c2cc2n(c3=O)Cc3cc4ccccc4nc3-2)NC(C)=O)C(=O)N[C@@H](CCCCNC(=O)CCOCCOCCOCCOCCOC)C(=O)N[C@@H](CCCCNC(=O)CCOCCOCCOCCOCCOC)C(N)=O)C(=O)OCc2c1cc1n(c2=O)Cc2cc3ccccc3nc2-1 [TT 1]
conjugated CPT released ([1]; 10 mM GSH, 37° C., by 6 h): ~100%
conjugates degraded (hydrolysis) ([1]; without GSH, 24 h): less than 10%
appearance of solution in cell medium ([2]; after one week): remained clear after one week; also recorded: remains clear after a week
change of CD signal upon dilution ([2]; cell medium with 10% FBS, 10 and 5 μM): slight decreases in intensity; also recorded: slight decrease of CD signal at 389 nm
dissociation of nanotubes upon dilution (CD) ([2]; cell medium with 10% FBS, concentrations above 25 μM, two days): no obvious disassociation; also recorded: minimum dissociation or aggregation
IC50 [3]: 149 nM
MTD [4]: 12 mg/kg
wall thickness measured from toroids ([5]; TT 1 nanotubes, TEM): 3.0±0.5 nm
hollow interior diameter ([5]; TT 1 nanotubes, toroids, TEM): 2.5±0.6 nm
nanotube diameter after loading ([5]; loaded with Coumarin 6, TEM): 9.8±1.4 nm
nanotube diameter after loading ([5]; loaded with IR 780, TEM): 10.2±0.9 nm
nanotube diameter after loading ([5]; loaded with Nile Red, TEM): 9.6±1.2 nm
nanotube diameter after loading ([5]; loaded with Rose Bengal lactone, TEM): 10.7±1.4 nm
diameter of PTX-doped nanotubes ([5]; paclitaxel-doped, 200 μM, TEM): 10.6±0.9 nm
Diameters measured by conventional TEM ([5]; self-assembled nanotubes in water, 200 μM, n>40): 8.8 ± 0.8 nm
